Data: patent publication US20130058965A1, “INJECTABLE FORMULATIONS FOR PARENTERAL ADMINISTRATION” (MANNKIND CORPORATION, priority 2009, published 2013)

Target: HLA-A*0201 (Homo sapiens, UniProt P04439, D140Y/D185E/D98H/E176V/E277Q/G131W/G231S/I119V/I121R/I166T/I218V/L300P/L318F/N151K/N90K/P208A/P217A/Q86G/Q94H/R138H/R169H/T345S)
Assay: NY-ESO-1 analogues, % peptide binding (Table 1)

| % Peptide Binding [%] | Substance |
| --- | --- |
| 80 | NY-ESO-1 157-165 (S157Y, L158(Nva), C165V) [SEQ ID NO:19] |
| 80 | NY-ESO-1 157-165 (S157Y, C165V) (YLLMWITQV; Peptide analogue) [SEQ ID NO:13] |
